Laboratory results taken from article PMC6208443 (2018).
Square brackets hold non-standard residues; d marks the D form. Ends that are not written are not given here. Lys(Me3) = C[N+](C)(C)CCCC[C@H](N)C(=O)O; Lys(Me2) = CN(C)CCCC[C@H](N)C(=O)O; Lys(Me) = CNCCCC[C@H](N)C(=O)O

T1: RsAGDP1 AGD12 (residues 26–180) (Raphanus sativus)
T1 chain: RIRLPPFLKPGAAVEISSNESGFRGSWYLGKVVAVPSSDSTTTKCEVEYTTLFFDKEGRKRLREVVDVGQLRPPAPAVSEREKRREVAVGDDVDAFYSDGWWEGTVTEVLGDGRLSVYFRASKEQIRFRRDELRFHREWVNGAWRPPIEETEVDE


Target: RsAGDP1 AGD56
Experiment: ITC

Row | Kd [µM] | Binder
1 | 52.9 | ARTKQTARKSTGGKA (trimethyl-lysine at K9) [H3K9me3 peptide (ITC)]
2 | 26.2 | ARTKQTARKSTGGKA (dimethyl-lysine at K9) [H3K9me2 peptide (ITC)]
3 | 50 | ARTKQTARKSTGGKA (monomethyl-lysine at K9) [H3K9me1 peptide (ITC)]

Target: T1, RsAGDP1 AGD12 (residues 26–180)
Experiment: ITC

Row | Kd [µM] | Binder
4 | 25.5 | ART[Lys(Me2)]QTAR[Lys(Me2)]STGGKA [H3K4me2K9me2 peptide]
5 | 23.4 | ART[Lys(Me)]QTAR[Lys(Me2)]STGGKA [H3K4me1K9me2 peptide]
6 | 101 | ARTKQTARKSTGGKA (trimethyl-lysine at K9) [H3K9me3 peptide (ITC)]
7 | 103 | ART[Lys(Me3)]QTAR[Lys(Me2)]STGGKA [H3K4me3K9me2 peptide]
8 | 84.7 | ARTKQTARKSTGGKA (monomethyl-lysine at K9) [H3K9me1 peptide (ITC)]

Target: RsAGDP1 AGD34
Experiment: ITC

Row | Kd [µM] | Binder
9 | 10.7 | ARTKQTARKSTGGKA (trimethyl-lysine at K9) [H3K9me3 peptide (ITC)]
10 | 10.1 | ARTKQTARKSTGGKA (monomethyl-lysine at K9) [H3K9me1 peptide (ITC)]
